Laboratory results: patent US20240425588A1 (APEXIMMUNE THERAPEUTICS, published 2024)

B1: hu32B10 (45.32B10.A4) (antibody, V domains shown)
VH: EVQLLESGGGLVQPGGSLRLSCAASGFTFSNYVMSWVRQAPGKGLEWVSTITSGGTYTYYPDSVKGRFTISRDNSKNTLYLQMNSLRAEDTAVYYCTRWLLSLYAMDYWGQGTTVTVSS
VL: DIQMTQSPSSLSASVGDRVTITCRASQDISNFLNWYQQKPGKAVKLLLYYTSRLHSGVPSRFSGSGSGTDYTLTISSLQPEDFATYFCQQGKTYPYTFGGGTKVEIK
notes: Humanized antibody; also called humanized 45.32B10.A4
B2: 45.75D4.D3.D9 (antibody, V domains shown)
VH: EVQLQQSGPELVKPGASMKMSCKASGYKFTSYVMHWVKQKPGQGLEWIGYIDPYNDGSKYNEKFKGKATLTSDKSSSIAYMELSSLTSEDSAVFYCARGGSRGWYFDVWGAGTTVTVSS
VL: DIQMTQSPASLSASVGETVTFTCRTNENIYSYLTWYQQKQGKSPQVLVYNAKTLAEGVPSRFSGSGSGTQFSLKINSLQPEDFGSYFCQHHFGNPLTFGAGTKLELK
notes: Mouse hybridoma antibody, tested as supernatant or protein G purified
B3: 45.86C5.C3 (antibody, V domains shown)
VH: DVQLQESGPGLVKPSQSLSLTCTVTGYSITSGYDWHWIRHFPGNILEWMGYISDSGNTIYSPSLKSRISITHDTSKNHFFLKLNSVTSEDTATYYCARGSFWYFDVWGAGTTVTVSS
VL: DIQMTQSPASLSASVGETVTITCRVSENIYSYLAWYQQKQGKSPQLLVYNTKTLAEGVPSRFSGSGSGTQFSLKINSLQPEDFGSYYCQHHYGNPLTFGAGTKLELK
notes: as for B2
B4: 45.62B12.G5 (antibody, V domains shown)
VH: DVQLQESGPGLVKPSQSLSLTCTVTGYSITSAYDWHWIRHFPGNILEWMGYIRNSGSTNYNPLLKSRISITHDTSQNHFSLKLNSVTTEDTATYYCARGLFWYFDVWGAGTTVTVSS
VL: DIQMTQSPASLSASVGETVTITCRASENIYNYLTWYQQKQGKSPQLLVYNAKTLAEGVPSRFSGSGSGTQFSLKINSLQPEDFGSYYCQHHYGNPLTFGAGTKLELK
notes: as for B2
B5: 45.87B8.H2.H5 (antibody, V domains shown)
VH: DVQLQESGPGLVKPSQSLSLTCTVTGYSITSAYDWHWIRLFPGHILEWMGYISYSGNTIYNPSLKSRISITHDTSKNHFFLKLNSVTTEDTATYYCARGSFWYFDVWGAGTTVTVSS
VL: DIQMTQSPASLSASVGETVTITCRVSEHIYNYLAWYQQKQGKSPQLLVYNAKTLAEGVPSRFSGSGSGTQFSLKINSLQPEDFGTYYCQHNYGNPLTFGAGTKVELK
notes: as for B2
B6: 45.32A8.G6 (antibody, V domains shown)
VH: QVQLKESGPGLVAPSHSLSITCTVSGFSLTNYNINWIRQPPGKGLEWLGIIWTGGGTNYNSAFMSTLSINKDNSKSQVFLKMNRMQTDDTTIYYCVRETYFNNYGFYFDYWGQSTTLTVSS
VL: EIVLTQSPTTMAASPGEKITITCSASSSISSNYLHWYQQKPGFSPKLLIYRTSNLASGVPARFSGSGSGTSYSLTIGTMEAEDVATYYCQQGSSIPRTFGGGTKLEIK
notes: as for B2
B7: 45.50C2.A6 (antibody, V domains shown)
VH: QVQLKESGPGLVAPSQSLSITCTVSGFSLTNYNINWIRQPPGKGLEWLGVIWTGGGTNYNSAFMSRLSISKDNSKSQVFLKMNRLQTDDTAIYYCVREAYFSNYGFYFDYWGQGTTLTVSS
VL: EIVLTQSPTTMAASPGEKITITCSASSSISSNYLHWYQQKPGFSPKLLIYRTSNLASGVPARFSGSGSGTSYSLTIGTMEAEDVATYYCQQGSSIPRTFGGGTKLEIK
notes: as for B2
B8: 45.32B10.A4 (antibody, V domains shown)
VH: EVQLVESGGVLVKPGGSLKLSCAASGFTFSNYVMSWVRQTPEKRLEWVATITSGGTYTYYPDSVKGRFTISRDNAKNILYLQMSSLRSEDTALYYCTRWLLSLYAMDYWGQGTSVTVSS
VL: DIQMTQTTSSLSASLGDRVTITCRASQDISNFLNWYQQKPDGTVKLLIYYTSRLHSGVPSRFSGSGSGTDYSLTISNLEQEDIATYFCQQGKTYPYTFGGGTKVEIK
notes: as for B2
B9: 45.56F7.A1 (antibody, V domains shown)
VH: EVQLVESGGALVKPGGSLKLSCAASGFTFSNYAMSWVRQTPEKRLEWVATISSGGSYTYYPDSVKGRFTISRDNAKNTLYLQMSSLRSEDTALYYCARWLLSLYAMDYWGQGTSVTVSS
VL: DFQMTQTTSSLSASLGDRVTISCRSSQDISNYLNWYQQKPDGTVKLLIYRTSRLHSGVPSRFSGSGSGTDYSLTISNLEREDIATYFCQQGKTPPYTFGGGTKLEIK
notes: as for B2
B10: 45.3D7.F7 (antibody, V domains shown)
VH: QVQLQQSGPELVKPGASVKISCKASGYGFSGYWMNWVKQGPGKGLEWIGRIFPGDGDTDYNGKLKDKATLTAYKSSSTAYLQLSSLTSEDSAVYFCARWLGGFTSWGQGTLVTVSA
VL: QIVLSQSPAILSASPGEKVTMTCRASASVSYMHWYQQKPGSSPKPWIYATSNLASGVPARFSGSGSGTSYSLTISRVEAEDAATYYCQQWSSDPPTFGAGTKLELK
notes: as for B2

Target: T1, human TIGIT expressed on the cell surface of Jurkat cells (human, UniProt Q495A1 22-244)
T1 construct: also called Jurkat-hTIGIT; cell surface TIGIT
T1 sequence: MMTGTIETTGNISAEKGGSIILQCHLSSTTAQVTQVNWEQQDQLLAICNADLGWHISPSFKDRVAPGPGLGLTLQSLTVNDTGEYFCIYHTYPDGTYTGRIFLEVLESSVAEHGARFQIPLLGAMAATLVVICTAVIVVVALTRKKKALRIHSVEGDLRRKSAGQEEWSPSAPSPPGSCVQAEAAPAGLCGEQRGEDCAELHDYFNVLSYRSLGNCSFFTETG
Assay: flow cytometry on Jurkat-hTIGIT cells
Protocol: Supernatants from ELISA-positive clones or purified antibodies were further tested for their ability to bind to human TIGIT or rhesus TIGIT expressed on the cell surface of Jurkat cells (Jurkat-hTIGIT or Jurkat-rhesTIGIT) by flow cytometry. Jurkat-hTIGIT or Jurkat-rhesTIGIT cells were harvested and 1×10⁵ cells per well plated in 96-well U-bottom plates and the supernatant removed. 50 μl of hybridoma supernatant or purified antibody at the specified dilution or concentration was added to each well and incubated at 4° C. for 30 minutes. Assay plates were washed 2 times with PBS and antibody binding detected using a PE-labeled goat anti-mouse antibody (Biolegend) at 1:400 dilution in PBS for 30 minutes at 4° C. Plates were washed 2 times and analyzed on a BD LSRFortessa X-20 flow cytometer (Becton Dickinson).

Binder	binding result
B1	binds
B2	binds
B3	binds
B4	binds
B5	binds
B6	binds
B7	binds
B8	binds
B9	binds
B10	binds
